Assay results as given in the supplement of paper PMC10567573.

B1: INTS3 (parent)
chain: FSDDEEDLNSKGKKREFRFHPIKE

Variants of: B1
Test: protein stability index of a GFP-peptide fusion (GPS, HEK-293T) (PSI 1-6); higher = more stable
Settings: c terminus: a fixed tail appended
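Further: lentivirally expressed fusions sorted by FACS into six bins by GFP to DsRed ratio, PSI derived from sequencing read proportions per bin multiplied by bin number.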

Compared with FSDDEEDLNSKGKKREDRFHPIKE, FSDDEEDLNSKGKKREIRFHPIKE is higher in protein stability index: 4.43 for the first, 4.9 for the second.

First: FSDDEEDLNSKGKKREQRFHPIKE
Second: FSDDEEDLNSKGKKREARFHPIKE
The protein stability index of the first is higher: 5.18 for the first, 5.13 for the second.

Going from FSDDEEDLNSKGKKRESRFHPIKE to FSDDEEDLNSKGKKREPRFHPIKE, the protein stability index falls from 5.44 to 5.06.

First: FSDDEEDLNSKGKKREKRFHPIKE
Second: FSDDEEDLNSKGKKREERFHPIKE
The protein stability index of the first is higher: 5.12 for the first, 5.03 for the second.

First: FSDDEEDLNSKGKKREWRFHPIKE
Second: FSDDEEDLNSKGKKREMRFHPIKE
The protein stability index of the first is lower: 2.01 for the first, 4.79 for the second.

First: FSDDEEDLNSKGKKREHRFHPIKE
Second: FSDDEEDLNSKGKKREVRFHPIKE
The protein stability index of the first is higher: 5.01 for the first, 4.85 for the second.

First: FSDDEEDLNSKGKKRECRFHPIKE
Second: FSDDEEDLNSKGKKRENRFHPIKE
The protein stability index of the first is higher: 5.31 for the first, 5.01 for the second.

First: FSDDEEDLNSKGKKRERRFHPIKE
Second: FSDDEEDLNSKGKKREGRFHPIKE
The protein stability index of the first is lower: 4.97 for the first, 5.18 for the second.

Compared with FSDDEEDLNSKGKKRELRFHPIKE, FSDDEEDLNSKGKKRETRFHPIKE is higher in protein stability index: 4.76 for the first, 5.04 for the second.

First: FSDDEEDLNSKGKKREYRFHPIKE
Second: FSDDEEDLNSKGKPREFRFHPIKE
The protein stability index of the first is higher: 4.35 for the first, 3.46 for the second.

First: FSDDEEDLNSKGKAREFRFHPIKE
Second: FSDDEEDLNSKGKQREFRFHPIKE
The protein stability index of the first is lower: 3.01 for the first, 3.1 for the second.

Compared with FSDDEEDLNSKGKTREFRFHPIKE, FSDDEEDLNSKGKIREFRFHPIKE is lower in protein stability index: 3.46 for the first, 1.88 for the second.

Going from FSDDEEDLNSKGKGREFRFHPIKE to FSDDEEDLNSKGKNREFRFHPIKE, the protein stability index rises from 2.96 to 3.27.

Compared with FSDDEEDLNSKGKDREFRFHPIKE, FSDDEEDLNSKGKFREFRFHPIKE is lower in protein stability index: 3.73 for the first, 2.13 for the second.

Going from FSDDEEDLNSKGKEREFRFHPIKE to FSDDEEDLNSKGKYREFRFHPIKE, the protein stability index falls from 3.44 to 2.48.

Compared with FSDDEEDLNSKGKSREFRFHPIKE, FSDDEEDLNSKGKLREFRFHPIKE is lower in protein stability index: 3.79 for the first, 2.11 for the second.

Going from FSDDEEDLNSKGKRREFRFHPIKE to FSDDEEDLNSKGKHREFRFHPIKE, the protein stability index falls from 2.88 to 2.86.

Going from FSDDEEDLNSKGKCREFRFHPIKE to FSDDEEDLNSKGKVREFRFHPIKE, the protein stability index falls from 2.66 to 2.03.

Going from FSDDEEDLNSKGKMREFRFHPIKE to FSDDEEDLNSKGKWREFRFHPIKE, the protein stability index rises from 1.41 to 1.53.

First: FSDDEEDLNSKGKKREFGFHPIKE
Second: FSDDEEDLNSKGKKREFEFHPIKE
The protein stability index of the first is lower: 4.77 for the first, 5.1 for the second.

Compared with FSDDEEDLNSKGKKREFMFHPIKE, FSDDEEDLNSKGKKREFHFHPIKE is lower in protein stability index: 4.9 for the first, 4.85 for the second.

Going from FSDDEEDLNSKGKKREFCFHPIKE to FSDDEEDLNSKGKKREFIFHPIKE, the protein stability index falls from 4.57 to 4.55.

Going from FSDDEEDLNSKGKKREFTFHPIKE to FSDDEEDLNSKGKKREFQFHPIKE, the protein stability index rises from 4.64 to 5.2.

Compared with FSDDEEDLNSKGKKREFVFHPIKE, FSDDEEDLNSKGKKREFWFHPIKE is lower in protein stability index: 4.56 for the first, 3.35 for the second.

First: FSDDEEDLNSKGKKREFKFHPIKE
Second: FSDDEEDLNSKGKKREFDFHPIKE
The protein stability index of the first is lower: 4.63 for the first, 4.94 for the second.

Going from FSDDEEDLNSKGKKREFFFHPIKE to FSDDEEDLNSKGKKREFLFHPIKE, the protein stability index rises from 3.27 to 4.57.

Compared with FSDDEEDLNSKGKKREFSFHPIKE, FSDDEEDLNSKGKKREFNFHPIKE is higher in protein stability index: 4.12 for the first, 5.14 for the second.

Compared with FSDDEEDLNSKGKKREFAFHPIKE, FSDDEEDLNSKGKKREFPFHPIKE is higher in protein stability index: 4.33 for the first, 4.76 for the second.

Going from FSDDEEDLNSKGKKREFYFHPIKE to FSDDEEDLNSKGKKREFRFAPIKE, the protein stability index rises from 4.36 to 4.58.

Compared with FSDDEEDLNSKGKKREFRFDPIKE, FSDDEEDLNSKGKKREFRFCPIKE is lower in protein stability index: 5.39 for the first, 4.31 for the second.

Compared with FSDDEEDLNSQGKKREFRFHPIKE, FSDDEEDLNSIGKKREFRFHPIKE is lower in protein stability index: 3.62 for the first, 3.48 for the second.

Going from FSDDEEDLNSNGKKREFRFHPIKE to FSDDEEDLNSEGKKREFRFHPIKE, the protein stability index falls from 3.44 to 3.38.

Going from FSDDEEDLNSYGKKREFRFHPIKE to FSDDEEDLNSWGKKREFRFHPIKE, the protein stability index falls from 3.29 to 1.9.

Going from FSDDEEDLNSHGKKREFRFHPIKE to FSDDEEDLNSDGKKREFRFHPIKE, the protein stability index rises from 3.13 to 3.56.

First: FSDDEEDLNSLGKKREFRFHPIKE
Second: FSDDEEDLNSRGKKREFRFHPIKE
The protein stability index of the first is lower: 2.73 for the first, 3.2 for the second.

Compared with FSDDEEDLNSMGKKREFRFHPIKE, FSDDEEDLNSAGKKREFRFHPIKE is higher in protein stability index: 2.79 for the first, 3.62 for the second.

Going from FSDDEEDLNSPGKKREFRFHPIKE to FSDDEEDLNSGGKKREFRFHPIKE, the protein stability index falls from 3.38 to 3.02.

First: FSDDEEDLNSTGKKREFRFHPIKE
Second: FSDDEEDLNSFGKKREFRFHPIKE
The protein stability index of the first is higher: 3.35 for the first, 3.24 for the second.

Going from FSDDEEDLNSVGKKREFRFHPIKE to FSDDEEDLNSSGKKREFRFHPIKE, the protein stability index rises from 2.89 to 3.22.

Going from FSDDEEDLNSCGKKREFRFHPIKE to FSDDEEDLNSKGKKREFRWHPIKE, the protein stability index rises from 2.99 to 3.72.

First: FSDDEEDLNSKGKKREFRAHPIKE
Second: FSDDEEDLNSKGKKREFREHPIKE
The protein stability index of the first is lower: 5.07 for the first, 5.59 for the second.

Going from FSDDEEDLNSKGKKREFRSHPIKE to FSDDEEDLNSKGKKREFRDHPIKE, the protein stability index falls from 5.6 to 5.53.

Compared with FSDDEEDLNSKGKKREFRLHPIKE, FSDDEEDLNSKGKKREFRVHPIKE is higher in protein stability index: 4.67 for the first, 5.1 for the second.

First: FSDDEEDLNSKGKKREFRYHPIKE
Second: FSDDEEDLNSKGKKREFRTHPIKE
The protein stability index of the first is lower: 3.49 for the first, 5.06 for the second.

Going from FSDDEEDLNSKGKKREFRMHPIKE to FSDDEEDLNSKGKKREFRPHPIKE, the protein stability index rises from 4.86 to 5.07.

FSDDEEDLNSKGKKREFRCHPIKE and FSDDEEDLNSKGKKREFRGHPIKE are the same in protein stability index: 4.98 for the first, 4.98 for the second.

First: FSDDEEDLNSKGKKREFRRHPIKE
Second: FSDDEEDLNSKGKKREFRKHPIKE
The protein stability index of the first is lower: 5.29 for the first, 5.4 for the second.
